Source: paper PMC5382021

How the values were obtained:
Test in all cases: purified protein
[1] = tested on: O=c1ccn([C@@H]2O[C@H](CO)[C@H]3OP(=O)(O)O[C@H]32)c(=O)[nH]1; settings: 2 mM Mn2+, pH 7.5
[2] = tested on: Nc1nc2c(ncn2[C@@H]2O[C@@H]3COP(=O)(O)O[C@H]4[C@@H](O)[C@H](n5cnc6c(N)ncnc65)O[C@@H]4COP(=O)(O)O[C@H]3[C@H]2O)c(=O)[nH]1; settings: 50 mM Tris pH 7.5, 5 mM MnCl2, 37 °C
[3] = tested on: [H][C@@]1(O)[C@]2([H])OP(=O)(O)OC[C@@]3([H])O[C@@]([H])(n4cnc5c(N)ncnc54)[C@]([H])(O)[C@]3([H])OP(=O)(O)OC[C@@]2([H])O[C@@]1([H])n1cnc2c(N)ncnc21; settings: 50 mM Tris pH 7.5, 5 mM MnCl2, 37 °C
[4] = tested on: Nc1nc2c(ncn2[C@@H]2O[C@@H]3CO[P@](=O)(O)O[C@H]4[C@@H](O)[C@H](n5cnc6c(=O)[nH]c(N)nc65)O[C@@H]4CO[P@](=O)(O)O[C@H]3[C@H]2O)c(=O)[nH]1; settings: 50 mM Tris pH 7.5, 5 mM MnCl2, 37 °C
[5] = tested on: Nc1nc2c(ncn2[C@@H]2O[C@H](CO)[C@H]3OP(=O)(O)O[C@H]32)c(=O)[nH]1; settings: 2 mM Mn2+, pH 7.5

Substance: rCdnP (CdnP, Gbs1929) (Streptococcus agalactiae 2603V/R)
- Km [1]: 42 ± 10 µM
- kcat [1]: 19.8 s⁻¹
- kcat/Km [1]: 470000 M⁻¹ s⁻¹
- Km [2]: 4.0 ± 1.6 µM
- kcat [2]: 4.5 s⁻¹
- kcat/Km [2]: 1.1e+06 M⁻¹ s⁻¹
- Km [3]: 14 ± 1 µM
- kcat [3]: 17.4 s⁻¹
- kcat/Km [3]: 1.2e+06 M⁻¹ s⁻¹
- Km [4]: 13.2 ± 6 µM
- kcat [4]: 2.6 s⁻¹
- kcat/Km [4]: 190000 M⁻¹ s⁻¹
- Km [5]: 22 ± 4 µM
- kcat [5]: 9.4 s⁻¹
- kcat/Km [5]: 420000 M⁻¹ s⁻¹
